Molecular target: monoclonal 2H5 antibody produced by rat-mouse hybridoma 2H5 (FERM BP-11245)
Assay: competitive elution of eTEV-GFPUV from 2H5 sepharose, peptide 0 to 1000 µg/mL, SDS gel

RENLYFQGKDG [eTEV peptide (free peptide used as competitive eluent)]
peptide concentration giving complete competitive elution: 30 µg/mL

Source: patent US20120052569A1
